Reference: patent US20170166655A1

Tests used:
[1] = molecular target: F158 FcγRIIIa (human) (UniProt P08637); experiment: SPR
[2] = molecular target: FcγRIIb (human) (UniProt P31994); experiment: SPR
[3] = molecular target: V158 FcγRIIIa (human) (UniProt P08637); experiment: SPR
[4] = molecular target: H131 FcγRIIa (human) (UniProt P12318); experiment: SPR
[5] = molecular target: R131 FcγRIIa (human) (UniProt P12318); experiment: SPR
[6] = molecular target: FcγRI (human) (UniProt P12314); experiment: SPR
[7] = molecular target: human V158 FcγRIIIa, extracellular region (human) (UniProt P08637); experiment: AlphaScreen competition
[8] = molecular target: human V158 FcγRIIIa, extracellular region (human) (UniProt P08637); experiment: SPR
[9] = molecular target: human F158 FcγRIIIa, extracellular region (human) (UniProt P08637); experiment: SPR
[10] = molecular target: human FcγRIIIa on human PBMC effector cells (human) (UniProt P08637); experiment: cell-based or functional assay
[11] = molecular target: human F158 FcγRIIIa, extracellular region (human) (UniProt P08637); experiment: AlphaScreen competition

Substance: IgG2_P233E/V234L/A235L/^235G/G327A
- Kd [1]: 69400 nM
- Kd [2]: 663 nM
- Kd [3]: 73.6 nM
- Kd [4]: 313 nM
- Kd [5]: 260 nM
- Kd [6]: 0.145 nM

Substance: IgG2_P233E/V234L/A235L/^235G/S239D/I332E
- Kd [1]: 50.2 nM
- Kd [2]: 84.2 nM
- Kd [3]: 12.4 nM
- Kd [4]: 68.3 nM
- Kd [5]: 68.5 nM
- Kd [6]: 0.0908 nM

Substance: IgG2_P233E/V234L/A235L/^235G/S239D/I332E/G327A
- Kd [1]: 12.5 nM
- Kd [2]: 101 nM
- Kd [4]: 127 nM
- Kd [5]: 63.9 nM

Substance: IgG2_S239D/I332E/^P233EL
- Kd [1]: 59.6 nM
- Kd [2]: 264 nM
- Kd [3]: 21.6 nM
- Kd [4]: 71.8 nM
- Kd [5]: 64.2 nM
- Kd [6]: 1.94 nM

Substance: IgG2_S239D/I332E/^P233L
- Kd [1]: 53.2 nM
- Kd [2]: 238 nM
- Kd [3]: 25.2 nM
- Kd [4]: 82.2 nM
- Kd [5]: 67.4 nM
- Kd [6]: 3.28 nM

Substance: IgG2_S239D/I332E/^V234L
- Kd [1]: 96.2 nM
- Kd [2]: 95.8 nM
- Kd [3]: 33.7 nM
- Kd [4]: 29 nM
- Kd [5]: 27.8 nM
- Kd [6]: 0.634 nM

Substance: alemtuzumab IgG1 E258H (antibody)
- Fold WT [7]: 2.35 fold
- Fold WT [8]: 5.5 fold

Substance: alemtuzumab IgG1 E258Y (antibody)
- Fold WT [8]: 1.77 fold

Substance: alemtuzumab IgG1 E272H (antibody)
- Fold WT [8]: 384 fold

Substance: alemtuzumab IgG1 E272P (antibody)
- Fold WT [7]: 1.46 fold
- Fold WT [8]: 1.41 fold

Substance: alemtuzumab IgG1 E272R (antibody)
- Fold WT [8]: 1.38 fold

Substance: alemtuzumab IgG1 E283H (antibody)
- Fold WT [8]: 2.31 fold

Substance: alemtuzumab IgG1 E283L (antibody)
- Fold WT [8]: 2.56 fold

Substance: alemtuzumab IgG1 H268D (antibody)
- Fold WT [8]: 5.66 fold

Substance: alemtuzumab IgG1 I332D (antibody)
- Fold WT [8]: 11.2 fold

Substance: alemtuzumab IgG1 I332E (antibody)
- Kd [9]: 72 nM
- Kd [8]: 31 nM

Substance: alemtuzumab IgG1 K246H (antibody)
- Fold WT [8]: 22.4 fold

Substance: alemtuzumab IgG1 K326E (antibody)
- Fold WT [7]: 1.86 fold
- Fold WT [8]: 3.13 fold

Substance: alemtuzumab IgG1 N297D/A330Y/I332E (aglycosylated) (antibody)
- fold of glycosylated WT alemtuzumab [7]: 0.4 fold

Substance: alemtuzumab IgG1 R255Y (antibody)
- Fold WT [8]: 1.41 fold

Substance: alemtuzumab IgG1 S239D/I332E (antibody)
- ADCC EC50, DoHH-2 target cells, PBMCs V158/F158 FcγRIIIa [10]: 3 ng/mL
- ADCC Fold WT, DoHH-2 target cells, PBMCs V158/F158 FcγRIIIa [10]: 3.3 fold
- ADCC log(EC50), DoHH-2 target cells, PBMCs V158/F158 FcγRIIIa [10]: 0.49 log(ng/ml)

Substance: alemtuzumab IgG1 S239D/N297D/I332E (aglycosylated) (antibody)
- fold of glycosylated WT alemtuzumab [7]: 0.8 fold

Substance: alemtuzumab IgG1 S239E (antibody)
- Fold WT [7]: 2.64 fold
- Fold WT [8]: 3.28 fold

Substance: alemtuzumab IgG1 S267E (antibody)
- Fold WT [8]: 2.62 fold

Substance: alemtuzumab IgG1 S298A (antibody)
- Kd [9]: 285 nM
- Kd [8]: 52 nM

Substance: alemtuzumab IgG1 S298A/E333A/K334A (antibody)
- Kd [9]: 156 nM
- Kd [8]: 39 nM

Substance: alemtuzumab IgG1 S304T (antibody)
- Fold WT [8]: 12.8 fold

Substance: alemtuzumab IgG1 T260H (antibody)
- Fold WT [8]: 1.86 fold

Substance: alemtuzumab IgG1 V264I (antibody)
- Kd [9]: 550 nM
- Kd [8]: 64 nM

Substance: alemtuzumab IgG1 V264I/I332E (antibody)
- ADCC EC50, DoHH-2 target cells, PBMCs V158/F158 FcγRIIIa [10]: 4 ng/mL
- ADCC Fold WT, DoHH-2 target cells, PBMCs V158/F158 FcγRIIIa [10]: 2.5 fold
- ADCC log(EC50), DoHH-2 target cells, PBMCs V158/F158 FcγRIIIa [10]: 0.6 log(ng/ml)
- Fold WT [11]: 15.6 fold
- IC50 [11]: 1.1 nM
- Fold WT [7]: 12.8 fold
- IC50 [7]: 0.5 nM
- Fold WT [9]: 14 fold
- Kd [9]: 52 nM
- Fold WT [8]: 4 fold
- Kd [8]: 17 nM

Substance: alemtuzumab IgG1 V284E (antibody)
- Fold WT [8]: 1.51 fold

Substance: alemtuzumab IgG1 WT (antibody)
- Kd [9]: 730 nM
- Kd [8]: 68 nM

Substance: rituximab IgG1 S298A/E333A/K334A (antibody)
- ADCC EC50, FIG. 118b [10]: 0.37 ng/mL
- ADCC Fold WT, FIG. 118b [10]: 4.6 fold
- ADCC log(EC50), FIG. 118b [10]: -0.44 log(ng/ml)

Substance: rituximab IgG1 WT (antibody)
- ADCC EC50, FIG. 118b, WIL2-S target cells, human PBMCs [10]: 1.7 ng/mL
- ADCC EC50, FIG. 118c, PBMCs F158/F158 FcγRIIIa [10]: 5.9 ng/mL
- ADCC log(EC50), FIG. 118b, WIL2-S target cells, human PBMCs [10]: 0.23 log(ng/ml)
- ADCC log(EC50), FIG. 118c, PBMCs F158/F158 FcγRIIIa [10]: 0.77 log(ng/ml)

Substance: trastuzumab IgG1 A330L/I332E (antibody)
- ADCC EC50, FIG. 117b [10]: 1.1 ng/mL
- ADCC Fold WT, FIG. 117b [10]: 10.5 fold
- ADCC log(EC50), FIG. 117b [10]: 0.04 log(ng/ml)

Substance: trastuzumab IgG1 A330Y/I332E (antibody)
- ADCC EC50, FIG. 117b [10]: 0.9 ng/mL
- ADCC Fold WT, FIG. 117b [10]: 12.8 fold
- ADCC log(EC50), FIG. 117b [10]: -0.04 log(ng/ml)

Substance: trastuzumab IgG1 E272H (antibody)
- Fold WT [8]: 0.65 fold

Substance: trastuzumab IgG1 E283L (antibody)
- Fold WT [7]: 19.9 fold
- Fold WT [8]: 3.68 fold

Substance: trastuzumab IgG1 I332D (antibody)
- Fold WT [7]: 19 fold
- Fold WT [8]: 2.57 fold

Substance: trastuzumab IgG1 K334I (antibody)
- Fold WT [7]: 15.2 fold
- Fold WT [8]: 7.1 fold

Substance: trastuzumab IgG1 S239D/I332E/S298A (antibody)
- Kd [9]: 4.9 nM
- Kd [8]: 8.7 nM

Substance: trastuzumab IgG1 S298A/E333A/K334A (antibody)
- ADCC EC50, FIG. 117c, PBMCs F158/F158 FcγRIIIa [10]: 0.2 ng/mL
- ADCC Fold WT, FIG. 117c, PBMCs F158/F158 FcγRIIIa [10]: 3.6 fold
- ADCC log(EC50), FIG. 117c, PBMCs F158/F158 FcγRIIIa [10]: -0.72 log(ng/ml)
